Here are results for 4 molecules from patent US20030027314A1 (published 2003).

Data set [1] deals with the molecule itself. In words: homodimer, study of FIG. 9 (method not given).
Data set [2] concerns the molecule itself. Put plainly: CD thermal melt, homodimer, 150 mM KCl.
Data set [3] addresses c-Jun (unmodified). Put plainly: from thermal melts, Kd at 37 °C (FIG. 4).
Data set [4] addresses c-Jun (unmodified). In words: thermal melting curve, mixture (FIG. 4).
Another data set has as its target T1, CREB (unmodified).
T1 construct: also called unmodified CREB
T1 sequence (chain, from a related filing, looked up): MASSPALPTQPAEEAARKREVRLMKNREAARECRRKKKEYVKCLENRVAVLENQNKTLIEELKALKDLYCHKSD
Put plainly: thermal melting curve, mixture (FIG. 3).

Chain of c-Jun (unmodified) (chain, from a related filing, as listed by the source): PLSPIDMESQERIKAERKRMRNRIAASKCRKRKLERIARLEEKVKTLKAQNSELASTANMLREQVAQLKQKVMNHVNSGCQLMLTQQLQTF

B1: 0heptadMax (dimerization domain of Max without an acidic extension) (other)
chain: ASMTGGQQMGRDPDLEELEDSFHSLRDSVPSLQGEKASRAQILDKATEYIQYMRRKNHTHQQDIDDLKRQNALLEQQVRALEKARSSAQLQT
Broadly, the Kd is the constant that tells how readily two partners part at equilibrium. Read a low Kd as a tighter complex. B1: in data set [1], the Kd was determined as 100 nM.

B2: 0heptad-F (F zipper with the basic region deleted) (designed binder)
chain: ASMTGGQQMGRDPGGGTQQEVLELESRNDRLRKEVEQLERELDTLRGIFRQLPESSLVKAMGNCA
notes: expressed in E. coli; also called 0heptad-F (H); heterodimerizing zipper
As to B2, in data set [2], the “delta G at 25 °C” value was -8 kcal/mol.

B3: 4heptad-Fos (c-Fos with the basic region replaced by four acidic heptad repeats) (designed binder)
chain: MASMTGGQQMGRDPDLEQRAEELARENEELEKEAEELEQENAELEAETDQLEDEKSALQTEIANLLKEKEKLEFILAAHRPACKIP
notes: How the two entries relate is not explained; also called aFos; aZIP 4heptadFos
Usually Tm stands for the temperature at which the thermal transition is half complete. In the case of B3, in the data set with c-Jun (unmodified) [3], the Kd came to 6 nM. Besides, the Tm with c-Jun (unmodified) [4] was found to be 61 °C.

B4: 4heptadCREB (CREB with 4 heptad repeats appended at the amino terminus) (designed binder)
chain: ASMTGGQQMGRDPDLEQRAEELARENEELEKEAEELEQENAELENRVAVLENQNKTLIEELKALKDLYCHKSD
notes: also called 4hep-CREB
Consider B4, for which, in the data set with CREB (unmodified), the melting temperature (Tm) turned out to be 53 °C.
